This data set has as its system E. coli single-stranded DNA-binding protein (SSB) (Escherichia coli). As to conditions: saturating ratio inferred from priming titration (mass ratio SSB:DNA about 2.5); 40 mM Tris-Cl pH 7.5, 50 mM NaCl, 10 mM MgCl2, 0 C; indirect functional ….

As for M13 single-stranded viral DNA, the binding (nt per SSB monomer) is 22.

These data come from patent US5547843.
